From patent publication US7378503 (dated 2008)
Where a chain is given by its changes, count along the chain named.

B1: Antibody 23 (antibody, V domains shown)
VH: EVQLVQSGGGLVHPGGSLRLSCAGSGFTFSNYAMYWVRQAPGKGLEWVSAIGSGGGTYYADSVKGRFTISRDNAKNSLYLQMNSLRAEDMAVYHCARAPNWGSEAFDIWGQGTMVTVSS
VL: DIQMTQSPSSLSASVGDRVTITCRASQGISSWLAWYQQKPEKAPKSLIYAASSLQSGVPSRFSGSGSGTDFTLTISSLQPEDFATYYCQQYNSYPITFGQGTRLEIK
B2: Antibody 1A (antibody, V domains shown)
VH: B1 VH with S30R, H94Y, E104D
VL: B1 VL with I96P, Q100P, R103K, L104V, E105D
B3: Antibody 8 (antibody, V domains shown)
VH: B1 VH with S30R, N31S, H94Y, E104D
VL: B1 VL with I96P, Q100P, R103K, L104V, E105D

Columns and labels:
[1] = molecular target: IGF-IR extracellular domain (human, UniProt P08069); test: SPR
[2] = molecular target: mouse IGF-IR (mouse, UniProt Q60751); test: other, immunoprecipitation
[3] = molecular target: rat IGF-IR (rat, UniProt P24062); test: other, immunoprecipitation
rat IGF-IR, sequence (P24062 31-936): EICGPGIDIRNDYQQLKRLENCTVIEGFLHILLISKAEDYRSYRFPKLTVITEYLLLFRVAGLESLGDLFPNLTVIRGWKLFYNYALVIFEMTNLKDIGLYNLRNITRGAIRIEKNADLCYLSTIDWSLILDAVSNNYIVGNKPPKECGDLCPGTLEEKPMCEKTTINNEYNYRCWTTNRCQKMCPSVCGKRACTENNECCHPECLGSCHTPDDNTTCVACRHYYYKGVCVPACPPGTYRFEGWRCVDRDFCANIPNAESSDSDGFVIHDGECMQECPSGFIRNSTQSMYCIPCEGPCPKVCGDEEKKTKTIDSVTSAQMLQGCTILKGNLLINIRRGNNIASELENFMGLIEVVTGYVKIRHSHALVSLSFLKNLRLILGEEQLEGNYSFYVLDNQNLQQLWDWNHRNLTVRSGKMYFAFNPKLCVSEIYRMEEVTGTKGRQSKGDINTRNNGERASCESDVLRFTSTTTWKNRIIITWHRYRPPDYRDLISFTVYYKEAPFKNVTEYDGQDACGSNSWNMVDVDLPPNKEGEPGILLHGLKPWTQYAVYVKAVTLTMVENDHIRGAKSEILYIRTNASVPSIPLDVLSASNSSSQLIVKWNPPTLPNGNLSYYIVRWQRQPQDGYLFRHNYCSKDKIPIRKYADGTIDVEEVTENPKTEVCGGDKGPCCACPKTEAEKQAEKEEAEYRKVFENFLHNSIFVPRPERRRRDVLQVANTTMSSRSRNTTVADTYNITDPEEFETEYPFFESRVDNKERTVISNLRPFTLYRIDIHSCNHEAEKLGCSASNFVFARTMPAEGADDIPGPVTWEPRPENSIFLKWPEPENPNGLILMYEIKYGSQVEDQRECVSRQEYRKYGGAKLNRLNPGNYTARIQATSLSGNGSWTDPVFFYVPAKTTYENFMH

mouse IGF-IR, sequence (Q60751 31-936): as the sequence (P24062 31-936) above, with G271D, F629Y, L714M counted along it

Binder	Kd [1] [nM]	binding result [2]	binding result [3]
B1	0.194		
B2	0.397	no binding	no binding
B3	2.01		
